Earlier results, collected in article PMC7462287.

Target: Protective antigen heptamer (Bacillus anthracis) (UniProt P13423)
Assay: SPR

Edema factor, sequence (P40136 34-800): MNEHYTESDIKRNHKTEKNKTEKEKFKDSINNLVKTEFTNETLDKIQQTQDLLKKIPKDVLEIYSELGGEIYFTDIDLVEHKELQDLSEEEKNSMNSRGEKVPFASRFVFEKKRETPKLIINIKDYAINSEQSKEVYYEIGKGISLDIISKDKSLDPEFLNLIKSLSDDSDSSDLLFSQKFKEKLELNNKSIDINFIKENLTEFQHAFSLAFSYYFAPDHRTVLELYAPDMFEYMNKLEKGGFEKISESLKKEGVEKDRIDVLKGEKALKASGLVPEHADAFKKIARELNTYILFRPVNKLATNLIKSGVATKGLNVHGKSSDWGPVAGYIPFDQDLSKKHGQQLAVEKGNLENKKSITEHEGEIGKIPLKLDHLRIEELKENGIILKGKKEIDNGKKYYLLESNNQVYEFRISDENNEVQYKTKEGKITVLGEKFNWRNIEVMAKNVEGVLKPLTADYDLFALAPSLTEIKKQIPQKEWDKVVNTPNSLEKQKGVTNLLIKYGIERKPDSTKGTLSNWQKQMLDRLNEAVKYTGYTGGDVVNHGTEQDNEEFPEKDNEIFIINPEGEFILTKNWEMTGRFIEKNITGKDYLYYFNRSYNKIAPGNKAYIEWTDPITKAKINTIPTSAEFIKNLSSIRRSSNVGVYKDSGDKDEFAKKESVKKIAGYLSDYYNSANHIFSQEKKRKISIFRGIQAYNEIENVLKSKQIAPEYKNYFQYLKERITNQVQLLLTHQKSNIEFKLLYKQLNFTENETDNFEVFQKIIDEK
Protective antigen heptamer (Bacillus anthracis), sequence (P13423 197-764): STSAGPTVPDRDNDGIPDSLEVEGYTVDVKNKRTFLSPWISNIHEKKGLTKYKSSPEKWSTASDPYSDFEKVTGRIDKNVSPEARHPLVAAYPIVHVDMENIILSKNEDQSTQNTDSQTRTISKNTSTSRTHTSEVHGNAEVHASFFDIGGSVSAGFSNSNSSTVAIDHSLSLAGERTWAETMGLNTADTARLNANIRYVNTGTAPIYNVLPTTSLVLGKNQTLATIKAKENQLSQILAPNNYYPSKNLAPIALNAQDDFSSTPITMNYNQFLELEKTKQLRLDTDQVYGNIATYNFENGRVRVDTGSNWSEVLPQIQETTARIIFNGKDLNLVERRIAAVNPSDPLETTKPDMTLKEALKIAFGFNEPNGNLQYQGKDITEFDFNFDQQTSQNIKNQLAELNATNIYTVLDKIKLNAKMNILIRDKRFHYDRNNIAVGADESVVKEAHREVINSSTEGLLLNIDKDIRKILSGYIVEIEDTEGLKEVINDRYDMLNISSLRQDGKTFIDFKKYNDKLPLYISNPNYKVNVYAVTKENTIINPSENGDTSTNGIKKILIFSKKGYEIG

For Edema factor (from UniProt P40136), the Kd is listed as 1.5 nM.
